In US20250115655A1, “PHARMACEUTICALS AND DEVICES FOR THE COVALENT IMMOBILIZATION TO THE EXTRACELLULAR MATRIX BY TRANSGLUTAMINASE” (JULIUS-MAXIMILIANS-UNIVERSITÄT WÜRZBURG, priority 2017, published 2025):
Ends that are not written are not given here.

How the values were obtained:
Format in all cases: biochemical
Factor XIIIa [1] = target: T1, Factor XIIIa (Homo sapiens, UniProt P00488); test: Crosslinking of D domain peptides to a glutamine substrate derived from α-2 plasmin inhibitor, catalyzed by FXIIIa, RP-HPLC
T1 construct: purchased Fibrogammin®
T1 sequence (P00488 39-732 limits assumed): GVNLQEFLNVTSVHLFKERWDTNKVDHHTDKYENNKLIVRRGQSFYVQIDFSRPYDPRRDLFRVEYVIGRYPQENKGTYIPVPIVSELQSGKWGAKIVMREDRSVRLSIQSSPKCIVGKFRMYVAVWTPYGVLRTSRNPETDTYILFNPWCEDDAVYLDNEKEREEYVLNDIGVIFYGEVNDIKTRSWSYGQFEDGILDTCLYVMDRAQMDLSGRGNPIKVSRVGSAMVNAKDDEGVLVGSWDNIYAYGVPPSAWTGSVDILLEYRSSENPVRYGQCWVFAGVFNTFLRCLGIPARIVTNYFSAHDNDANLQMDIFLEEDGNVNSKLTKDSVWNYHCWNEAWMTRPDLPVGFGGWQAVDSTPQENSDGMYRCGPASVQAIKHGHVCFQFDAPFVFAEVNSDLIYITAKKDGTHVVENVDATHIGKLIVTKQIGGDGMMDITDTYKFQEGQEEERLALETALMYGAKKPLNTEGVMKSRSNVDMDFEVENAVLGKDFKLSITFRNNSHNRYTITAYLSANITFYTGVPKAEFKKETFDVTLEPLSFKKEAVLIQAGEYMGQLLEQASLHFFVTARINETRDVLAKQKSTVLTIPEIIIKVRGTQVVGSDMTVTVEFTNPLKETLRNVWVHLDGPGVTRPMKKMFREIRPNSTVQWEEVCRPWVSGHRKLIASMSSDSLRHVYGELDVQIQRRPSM
Source text: Using solid phase peptide synthesis, the isolated peptide sequence of the D domain of human IGF-I (SEQ ID NO: 1) and mouse IGF-I (SEQ ID NO: 6) were synthesized and purified using preparative HPLC to achieve >95% purity. Additionally, a collection of N-terminally truncated versions of both sequences were created, in order to test if 7 or less amino acids are sufficient to be recognized by Factor XIIIa. According to a trypsin digest of coupled IGF-I, only K68 is modified and therefore, a reduction of the sequence to the last 3 amino acids could be possible. The truncated versions were manufactured and purified accordingly. Lyophilized peptides were dissolved in Tris buffer (20 mM Tris-HCl, 150 mM NaCl, pH 7.6) and reacted with a glutamine substrate (SEQ ID NO: 13, derived from α-2 plasmin inhibitor) in presence of 0.1 M calcium chloride and 10 U/ml Factor XIIIa (Fibrogammin®, activated with 0.02 U/ml thrombin). Following 30 minutes incubation at 37° C., the coupling reaction was stopped and the amount of crosslinked peptide analyzed using analytical RP-HPLC. The crosslinking ratios using equimolar amounts of both peptides (D domain and glutamine acceptor) are depicted in Table 1.

fibronectin = test: Immobilization of eGFP modified with the D domain on plasma fibronectin and ECM using factor XIIIa
Method: The same coupling reaction as described for IGF-I (Example 3) was also performed with enhanced green fluorescent protein (eGFP), previously modified with the D domain of human IGF-I (SEQ ID NO: 1), and immobilized using factor XIIIa (FIGS. 8A-8B). […] FIGS. 8A-8B: (8A) Western Blot of enhanced green fluorescent protein modified with the D domain (SEQ ID NO: 1) (eGFP-D domain, lane #1) after incubation with fibronectin in absence (lane #2) and presence (lane #3) of Factor XIIIa. (8B) Confocal laser scanning microscopy images of eGFP modified with the D domain (SEQ ID NO: 1) and immobilized on isolated ECM in presence (panel 1) or absence (panel 2) of factor XIIIa. The immobilized eGFP was visualized with a monoclonal eGFP antibody (green) und co-localized with fibronectin (red).

Factor XIIIa [2] = target: T1, Factor XIIIa; test: Crosslinking of D domain peptides to a glutamine substrate derived from α-2 plasmin inhibitor, catalyzed by FXIIIa, RP-HPLC; remark: listed apart in the source
[3] = equimolar peptide and glutamine substrate, incubation for 30 minutes with 10 U/ml FXIIIa, 37° C.

Substance: KPAKSA (listed as Homo sapiens) [SEQ ID NO: 3, N-terminally truncated human D domain]
- Crosslinking Efficacy (1:1 molar ratio)* (Factor XIIIa [1]; [3]): 58.37 ± 2.10

Substance: KSA (listed as Homo sapiens) [SEQ ID NO: 5 (−AS 67)]
- Crosslinking Efficacy (1:1 molar ratio)* (Factor XIIIa [1]; [3]): 21.40 ± 1.96

Substance: eGFP-D domain conjugate: enhanced green fluorescent protein modified with the D domain of human IGF-I (SEQ ID NO: 1) (PLKPAKSA; also: conjugated to eGFP)
- conjugation to plasma fibronectin (western blot) (fibronectin; factor XIIIa (FIG. 8A)): effective conjugation
- immobilization of the modified protein on ECM (fibronectin; factor XIIIa (FIG. 8B)): confirmed

Substance: PLKPAKSA (listed as Homo sapiens) [SEQ ID NO: 1, isolated D domain of human IGF-I]
- Crosslinking Efficacy (1:1 molar ratio)* (Factor XIIIa [2]; molar excess of the glutamine sequence 0.5): 44.48 ± 2.45
- Crosslinking Efficacy (1:1 molar ratio)* (Factor XIIIa [2]; molar excess of the glutamine sequence 2.5): 84.67 ± 2.02
- Crosslinking Efficacy (1:1 molar ratio)* (Factor XIIIa [2]; molar excess of the glutamine sequence 3.75): 87.53 ± 5.33
- Crosslinking Efficacy (1:1 molar ratio)* (Factor XIIIa [2]; molar excess of the glutamine sequence 5): 84.91 ± 6.23
- Crosslinking Efficacy (1:1 molar ratio)* (Factor XIIIa [2]; molar excess of the glutamine sequence 10): 88.67 ± 6.52
- conversion, time course of the coupling reaction with the Q peptide (Factor XIIIa [2]; within 10 minutes (FIG. 1)): about 80%
- Crosslinking Efficacy (1:1 molar ratio)* (Factor XIIIa [1]; [3]): 82.94 ± 0.79
- Crosslinking Efficacy (1:1 molar ratio)* (Factor XIIIa [1]; molar excess of the glutamine sequence 1): 81.06 ± 5.13

Substance: TKAA (listed as Mus musculus) [SEQ ID NO: 10, N-terminally truncated mouse D domain]
- Crosslinking Efficacy (1:1 molar ratio)* (Factor XIIIa [1]; [3]): 39.26 ± 4.07

Substance: PAKSA (listed as Homo sapiens) [SEQ ID NO: 4, N-terminally truncated human D domain]
- Crosslinking Efficacy (1:1 molar ratio)* (Factor XIIIa [1]; [3]): 44.18 ± 3.23

Substance: PLKPTKAA (listed as Mus musculus) [SEQ ID NO: 6, isolated D domain of mouse IGF-I]
- Crosslinking Efficacy (1:1 molar ratio)* (Factor XIIIa [1]; [3]): 84.16 ± 7.76
